Results: patent US20230212589A1

Assays:
[1] = biological target: Recombinant S1 protein of MERS-CoV (MERS-CoV) (UniProt K9N5Q8)
[2] = biological target: Recombinant S1 protein of SARS-CoV-2 (SARS-CoV-2) (UniProt P0DTC2)

Substance	sensitivity of the test strip [1] [nM]	sensitivity of the test strip [2] [nM]
6×His tag-AVI tag-DPP4 fusion protein, biotinylated and labeled with color latex (L-SB-DPP4) (receptor; other documents disagree on this pair)	10	–
ACE2-AVI tag-6×His tag fusion protein, biotinylated and labeled with color latex (L-SB-ACE2) (receptor; other documents disagree on this pair)	–	10
